From publication PMC8717925 (Nature structural & molecular biology, 2020) come the findings set out here.

B1: ARPC2 subunit of S. pombe Arp2/3 complex (natural protein)
chain: MLSLDYNNIFIYELLTERFSSENPSSIDQVVTDFDGVTFHISTPEEKTKILISLSMKCYPELVNYGTLDLLKQIYGAYVHEPEMGYNFSILIDLQQLPATDEEKEQLAMSISMLKRNVLAAPFHRAFTKQAELADLARKDPENAPMLDKQATSQELMAIHYRDEETIVLWPEHDRVTVVFSTKFREETDRIFGKVFLQEFVDARRRPAIQTAPQVLFSYRDPPLEIRDIQGIQKGDDFGFVTFVLFERHFTPQNREDCISHIQVFRNTLHFHIKASKAYMHQRMRKRVADFQKVLNRAKPDVELERKTATGRSFVRA
B2: ARPC4 subunit of S. pombe Arp2/3 complex (natural protein)
chain: not shown

Experiment [1] has as its target T1, Dip1 (S. pombe WISH/DIP/SPIN90 family nucleation promoting factor) (S. pombe, UniProt O74771 1-374).
T1 sequence (looked up): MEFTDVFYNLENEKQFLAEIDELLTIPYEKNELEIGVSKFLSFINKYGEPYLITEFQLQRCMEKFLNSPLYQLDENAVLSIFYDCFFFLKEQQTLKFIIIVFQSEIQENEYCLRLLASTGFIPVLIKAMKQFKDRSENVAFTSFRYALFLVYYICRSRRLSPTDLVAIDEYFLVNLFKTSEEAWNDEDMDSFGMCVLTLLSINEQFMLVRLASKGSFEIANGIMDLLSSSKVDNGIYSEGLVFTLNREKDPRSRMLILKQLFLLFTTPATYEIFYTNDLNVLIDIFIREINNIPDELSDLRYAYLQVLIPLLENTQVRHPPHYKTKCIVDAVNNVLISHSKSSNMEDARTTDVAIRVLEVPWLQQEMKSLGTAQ
The experiment is described as follows: cryo-EM structure.

In experiment [2] the target is B1. Briefly: cryo-EM structure.

Take B1: the binding result in experiment [1] was “binds”.

On to B2, for which the binding result in experiment [1] and in experiment [2] was “binds” each time.
